We go through 9 molecules from US20100048462A1, “TRUNCATED PTH PEPTIDES WITH A CYCLIC CONFORMATION” (Zealand Pharma A/S, priority 2006, published 2010).

Bridge positions count the residues as written; N and C are the ends. Square brackets hold non-standard residues; d marks the D form. hArg = N=C(N)NCCCC[C@H](N)C(=O)O; Met(O) = CS(=O)CC[C@H](N)C(=O)O; Ac5c = NC1(C(=O)O)CCCC1; Abu = CC[C@H](N)C(=O)O; Aib = CC(C)(N)C(=O)O

In the assay the target is Saos-2 PTH1R (UniProt Q03431). Put plainly: cell-based or functional assay.

B1: H-Ac5c-Val-Aib-Glu-Ile-Gln-Leu-Met-His-Gln-Har-Ala-Lys( )-Trp-Leu-Asp-Asp( )-NH2 (peptide)
chain: H-[Ac5c]V[Aib]EIQLMHQ[hArg]AKWLDD-NH2
modifications: lactam 13-17
SMILES: CC[C@H](C)[C@H](NC(=O)[C@H](CCC(=O)O)NC(=O)C(C)(C)NC(=O)[C@@H](NC(=O)C1(N)CCCC1)C(C)C)C(=O)N[C@@H](CCC(N)=O)C(=O)N[C@@H](CC(C)C)C(=O)N[C@@H](CCSC)C(=O)N[C@@H](Cc1c[nH]cn1)C(=O)N[C@@H](CCC(N)=O)C(=O)N[C@@H](CCCCNC(=N)N)C(=O)N[C@@H](C)C(=O)N[C@H]1CCCCNC(=O)C[C@@H](C(N)=O)NC(=O)[C@H](CC(=O)O)NC(=O)[C@H](CC(C)C)NC(=O)[C@H](Cc2c[nH]c3ccccc23)NC1=O
Turning to B1, the Emax, cAMP efficacy assay in Saos-2 cells (23T, trifluoroacetate salt) (relative to control (SEQ ID NO: 32)) amounted to 1.16 and the pEC50, cAMP efficacy assay in Saos-2 cells (23T, trifluoroacetate salt) is 7.48 -log(M).

B2: H-Ac5c-Val-Aib-Glu-Ile-Gln-Leu-Met-His-Gln-Arg-Ala-Lys( )-Trp-Leu-Asn-Asp( )-NH2 (peptide)
chain: H-[Ac5c]V[Aib]EIQLMHQRAKWLND-NH2
modifications: lactam 13-17
SMILES: CC[C@H](C)[C@H](NC(=O)[C@H](CCC(=O)O)NC(=O)C(C)(C)NC(=O)[C@@H](NC(=O)C1(N)CCCC1)C(C)C)C(=O)N[C@@H](CCC(N)=O)C(=O)N[C@@H](CC(C)C)C(=O)N[C@@H](CCSC)C(=O)N[C@@H](Cc1c[nH]cn1)C(=O)N[C@@H](CCC(N)=O)C(=O)N[C@@H](CCCNC(=N)N)C(=O)N[C@@H](C)C(=O)N[C@H]1CCCCNC(=O)C[C@@H](C(N)=O)NC(=O)[C@H](CC(N)=O)NC(=O)[C@H](CC(C)C)NC(=O)[C@H](Cc2c[nH]c3ccccc23)NC1=O
For the molecule B2, the Emax, cAMP efficacy assay in Saos-2 cells (25T, trifluoroacetate salt) (relative to control (SEQ ID NO: 32)) came to 1.04 and the pEC50, cAMP efficacy assay in Saos-2 cells (25T, trifluoroacetate salt) is 8.05 -log(M).

B3: H-Abu-Val-Aib-Glu-Ile-Gln-Leu-Leu-His-Gln-Har-Ala-Lys( )-Trp-Leu-Asn-Asp( )-NH2 (peptide)
chain: H-[Abu]V[Aib]EIQLLHQ[hArg]AKWLND-NH2
modifications: lactam 13-17
SMILES: CC[C@H](N)C(=O)N[C@H](C(=O)NC(C)(C)C(=O)N[C@@H](CCC(=O)O)C(=O)N[C@H](C(=O)N[C@@H](CCC(N)=O)C(=O)N[C@@H](CC(C)C)C(=O)N[C@@H](CC(C)C)C(=O)N[C@@H](Cc1c[nH]cn1)C(=O)N[C@@H](CCC(N)=O)C(=O)N[C@@H](CCCCNC(=N)N)C(=O)N[C@@H](C)C(=O)N[C@H]1CCCCNC(=O)C[C@@H](C(N)=O)NC(=O)[C@H](CC(N)=O)NC(=O)[C@H](CC(C)C)NC(=O)[C@H](Cc2c[nH]c3ccccc23)NC1=O)[C@@H](C)CC)C(C)C
Turning to B3, the Emax, cAMP efficacy assay in Saos-2 cells (11T, trifluoroacetate salt) (relative to control (SEQ ID NO: 32)) is 1.04 and the pEC50, cAMP efficacy assay in Saos-2 cells (11T, trifluoroacetate salt) is 7.17 -log(M).

B4: H-Ac5c-Val-Abu-Glu-Ile-Gln-Leu-Leu-His-Gln-Har-Ala-Lys( )-Trp-Leu-Asn-Asp( )-NH2 (peptide)
chain: H-[Ac5c]V[Abu]EIQLLHQ[hArg]AKWLND-NH2
modifications: lactam 13-17
SMILES: CC[C@H](NC(=O)[C@@H](NC(=O)C1(N)CCCC1)C(C)C)C(=O)N[C@@H](CCC(=O)O)C(=O)N[C@H](C(=O)N[C@@H](CCC(N)=O)C(=O)N[C@@H](CC(C)C)C(=O)N[C@@H](CC(C)C)C(=O)N[C@@H](Cc1c[nH]cn1)C(=O)N[C@@H](CCC(N)=O)C(=O)N[C@@H](CCCCNC(=N)N)C(=O)N[C@@H](C)C(=O)N[C@H]1CCCCNC(=O)C[C@@H](C(N)=O)NC(=O)[C@H](CC(N)=O)NC(=O)[C@H](CC(C)C)NC(=O)[C@H](Cc2c[nH]c3ccccc23)NC1=O)[C@@H](C)CC
In the case of B4, the Emax, cAMP efficacy assay in Saos-2 cells (15T, trifluoroacetate salt) (relative to control (SEQ ID NO: 32)) was 1.04 and the pEC50, cAMP efficacy assay in Saos-2 cells (15T, trifluoroacetate salt) is 7.22 -log(M).

As to H-[Ac5c]V[Aib]EIQL[Met(O)]HQ[hArg]AKWLND-NH2 (lactam 13-17) [H-Ac5c-Val-Aib-Glu-Ile-Gln-Leu-Met(O)-His-Gln-Har-Ala-Lys( )-Trp-Leu-Asn-Asp( )-NH2], the Emax, cAMP efficacy assay in Saos-2 cells (40T, trifluoroacetate salt) (relative to control (SEQ ID NO: 32)) was determined as 1.1 and the pEC50, cAMP efficacy assay in Saos-2 cells (40T, trifluoroacetate salt) was 6.9 -log(M).

B5: H-Ac5c-Val-Aib-Glu-Ile-Gln-Leu-Leu-His-Gln-Har-Ala-Lys( )-Trp-Leu-Asn-Asp( )-OH (peptide)
chain: H-[Ac5c]V[Aib]EIQLLHQ[hArg]AKWLND-OH
modifications: lactam 13-17
SMILES: CC[C@H](C)[C@H](NC(=O)[C@H](CCC(=O)O)NC(=O)C(C)(C)NC(=O)[C@@H](NC(=O)C1(N)CCCC1)C(C)C)C(=O)N[C@@H](CCC(N)=O)C(=O)N[C@@H](CC(C)C)C(=O)N[C@@H](CC(C)C)C(=O)N[C@@H](Cc1c[nH]cn1)C(=O)N[C@@H](CCC(N)=O)C(=O)N[C@@H](CCCCNC(=N)N)C(=O)N[C@@H](C)C(=O)N[C@H]1CCCCNC(=O)C[C@@H](C(=O)O)NC(=O)[C@H](CC(N)=O)NC(=O)[C@H](CC(C)C)NC(=O)[C@H](Cc2c[nH]c3ccccc23)NC1=O
Take B5: the Emax, cAMP efficacy assay in Saos-2 cells (5T, trifluoroacetate salt) (relative to control (SEQ ID NO: 32)) turned out to be 1.16 and the pEC50, cAMP efficacy assay in Saos-2 cells (5T, trifluoroacetate salt) is 7.14 -log(M).

B6: H-Ac5c-Val-Aib-Glu-Ile-Gln-Phe-Leu-His-Gln-Har-Ala-Lys( )-Trp-Leu-Asn-Asp( )-NH2 (peptide)
chain: H-[Ac5c]V[Aib]EIQFLHQ[hArg]AKWLND-NH2
modifications: lactam 13-17
SMILES: CC[C@H](C)[C@H](NC(=O)[C@H](CCC(=O)O)NC(=O)C(C)(C)NC(=O)[C@@H](NC(=O)C1(N)CCCC1)C(C)C)C(=O)N[C@@H](CCC(N)=O)C(=O)N[C@@H](Cc1ccccc1)C(=O)N[C@@H](CC(C)C)C(=O)N[C@@H](Cc1c[nH]cn1)C(=O)N[C@@H](CCC(N)=O)C(=O)N[C@@H](CCCCNC(=N)N)C(=O)N[C@@H](C)C(=O)N[C@H]1CCCCNC(=O)C[C@@H](C(N)=O)NC(=O)[C@H](CC(N)=O)NC(=O)[C@H](CC(C)C)NC(=O)[C@H](Cc2c[nH]c3ccccc23)NC1=O
As to B6, the Emax, cAMP efficacy assay in Saos-2 cells (27T, trifluoroacetate salt) (relative to control (SEQ ID NO: 32)) stood at 0.92 and the pEC50, cAMP efficacy assay in Saos-2 cells (27T, trifluoroacetate salt) was 7.91 -log(M).

B7: H-Ac5c-Val-Aib-Glu-Ile-Glu-Leu-Leu-His-Gln-Har-Ala-Lys( )-Trp-Leu-Asn-Asp( )-NH2 (peptide)
chain: H-[Ac5c]V[Aib]EIELLHQ[hArg]AKWLND-NH2
modifications: lactam 13-17
SMILES: CC[C@H](C)[C@H](NC(=O)[C@H](CCC(=O)O)NC(=O)C(C)(C)NC(=O)[C@@H](NC(=O)C1(N)CCCC1)C(C)C)C(=O)N[C@@H](CCC(=O)O)C(=O)N[C@@H](CC(C)C)C(=O)N[C@@H](CC(C)C)C(=O)N[C@@H](Cc1c[nH]cn1)C(=O)N[C@@H](CCC(N)=O)C(=O)N[C@@H](CCCCNC(=N)N)C(=O)N[C@@H](C)C(=O)N[C@H]1CCCCNC(=O)C[C@@H](C(N)=O)NC(=O)[C@H](CC(N)=O)NC(=O)[C@H](CC(C)C)NC(=O)[C@H](Cc2c[nH]c3ccccc23)NC1=O
Turning to B7, the Emax, cAMP efficacy assay in Saos-2 cells (29T, trifluoroacetate salt) (relative to control (SEQ ID NO: 32)) was determined as 1.27 and the pEC50, cAMP efficacy assay in Saos-2 cells (29T, trifluoroacetate salt) was 6.95 -log(M).

B8: H-Aib-Val-Ac5c-Glu-Ile-Gln-Leu-Leu-His-Gln-Har-Ala-Lys( )-Trp-Leu-Asn-Asp( )-NH2 (peptide)
chain: H-[Aib]V[Ac5c]EIQLLHQ[hArg]AKWLND-NH2
modifications: lactam 13-17
SMILES: CC[C@H](C)[C@H](NC(=O)[C@H](CCC(=O)O)NC(=O)C1(NC(=O)[C@@H](NC(=O)C(C)(C)N)C(C)C)CCCC1)C(=O)N[C@@H](CCC(N)=O)C(=O)N[C@@H](CC(C)C)C(=O)N[C@@H](CC(C)C)C(=O)N[C@@H](Cc1c[nH]cn1)C(=O)N[C@@H](CCC(N)=O)C(=O)N[C@@H](CCCCNC(=N)N)C(=O)N[C@@H](C)C(=O)N[C@H]1CCCCNC(=O)C[C@@H](C(N)=O)NC(=O)[C@H](CC(N)=O)NC(=O)[C@H](CC(C)C)NC(=O)[C@H](Cc2c[nH]c3ccccc23)NC1=O
B8: the Emax, cAMP efficacy assay in Saos-2 cells (13T, trifluoroacetate salt) (relative to control (SEQ ID NO: 32)) is 0.96 and the pEC50, cAMP efficacy assay in Saos-2 cells (13T, trifluoroacetate salt) is 7.27 -log(M).
